One block for each binder: values may come before it.
Experiments:
[1] = molecular target: T1, Tenascin-R, AP- or Fc-tagged (interactome library) ( (human or mouse sequence …, UniProt Q8BYI9 32-1358)); experiment: BLI; BLItz, RT; TenR-Fc captured from EXPI293 conditioned medium on anti-human Fc sensors; purified IgSF8 34-0.133 µM in twofold dilution; 10 mM Hepes pH 7.4, 150 mM NaCl, 1 mM CaCl2, 0.2% Tween20, 1% BSA; KD from response vs concentration; Fc-only sensor subtracted; details: one partner purified
T1 construct: In the BLI experiment only the Fc fusion stood, captured from conditioned medium of EXPI293 cells on anti-human Fc sensors; also called TenR; TenR-Fc/AP; source: Expi293 cells, transfected, conditioned medium used without purification; not shown: Fc (human IgG1) in the Fc fusion, C-terminal, kept; alkaline phosphatase (human) in the AP fusion, C-terminal, kept
T1 sequence (looked up): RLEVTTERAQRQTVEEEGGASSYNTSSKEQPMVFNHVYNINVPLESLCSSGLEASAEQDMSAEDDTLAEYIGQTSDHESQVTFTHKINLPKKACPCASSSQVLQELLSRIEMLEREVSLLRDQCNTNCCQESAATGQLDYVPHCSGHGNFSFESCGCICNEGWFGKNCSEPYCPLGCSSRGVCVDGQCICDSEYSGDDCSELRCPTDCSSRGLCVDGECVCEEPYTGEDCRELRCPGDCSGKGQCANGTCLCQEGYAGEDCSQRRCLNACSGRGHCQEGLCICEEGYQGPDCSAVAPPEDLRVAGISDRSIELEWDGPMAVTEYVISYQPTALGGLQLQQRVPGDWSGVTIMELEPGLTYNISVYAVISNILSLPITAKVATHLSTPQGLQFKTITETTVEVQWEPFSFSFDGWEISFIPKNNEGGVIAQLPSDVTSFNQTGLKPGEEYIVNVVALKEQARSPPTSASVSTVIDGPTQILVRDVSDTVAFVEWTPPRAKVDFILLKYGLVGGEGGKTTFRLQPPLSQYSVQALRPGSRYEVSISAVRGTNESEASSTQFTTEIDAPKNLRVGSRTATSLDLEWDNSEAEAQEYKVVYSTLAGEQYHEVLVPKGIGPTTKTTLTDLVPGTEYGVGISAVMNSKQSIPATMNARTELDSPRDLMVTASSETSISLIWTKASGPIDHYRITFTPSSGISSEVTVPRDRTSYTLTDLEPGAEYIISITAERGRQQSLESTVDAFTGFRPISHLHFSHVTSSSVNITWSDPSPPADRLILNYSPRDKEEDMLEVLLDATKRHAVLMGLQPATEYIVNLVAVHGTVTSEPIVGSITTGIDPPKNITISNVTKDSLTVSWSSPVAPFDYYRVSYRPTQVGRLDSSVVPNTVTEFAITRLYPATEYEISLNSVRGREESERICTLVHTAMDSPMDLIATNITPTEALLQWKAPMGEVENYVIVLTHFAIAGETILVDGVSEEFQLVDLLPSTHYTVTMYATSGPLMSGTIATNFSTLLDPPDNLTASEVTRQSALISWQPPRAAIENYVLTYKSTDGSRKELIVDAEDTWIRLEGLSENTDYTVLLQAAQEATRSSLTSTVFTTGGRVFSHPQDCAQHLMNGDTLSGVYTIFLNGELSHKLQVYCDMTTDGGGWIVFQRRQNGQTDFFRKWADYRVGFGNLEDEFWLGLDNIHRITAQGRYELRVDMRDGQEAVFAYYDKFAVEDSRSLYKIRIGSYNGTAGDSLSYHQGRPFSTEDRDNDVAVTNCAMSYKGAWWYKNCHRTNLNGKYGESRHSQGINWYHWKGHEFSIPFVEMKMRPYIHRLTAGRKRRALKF

[2] = molecular target: T2, TenR-Fc (Tenascin-R fused to the Fc region of human IgG1) ( (human or mouse sequences …, UniProt Q8BYI9 32-1358)); experiment: BLI; BLItz, room temperature; TenR-Fc captured from conditioned medium on anti-human Fc biosensors; purified IgSF8 34-0.133 uM in twofold dilution; association in 10 mM Hepes pH 7.4, 150 mM NaCl, 1 mM CaCl2, 0.2% Tween20, 1% BSA; Fc-only sensor subtracted; binding response against concentration fitted as one site specific binding; details: one partner purified
T2 construct: Tenascin-R, secreted ECM protein; also called Tenascin-R-Fc; source: EXPI293 cells, transfected, conditioned medium; not shown: Fc (human IgG1), C-terminal, kept
T2 sequence (looked up): T1 sequence (looked up)

Kd [1]: ~1400 nM
B1: purified IgSF8 (BLI analyte) (natural protein)
chain: RQVHVPRGPLYRVAGTAVSISCNVSDYEGPAQQDFEWFMYRPEAPATSLGIVSTKDSQFSYAVFGPRVASGDLQVQRLKGDSVVLKIARLQAQDSGFYECYTPSTDTQYLGNYSAKVELRVLPDELQVSAAPPGPRGRQAATSPSRLTVHEGQELALGCLAQTKTKKHTHLSVSFGRAIPEAPVGRATLQEVVGLRSDMAVEAGAPYAERLASGELRLSKEGTDRYRMVVGGAQAGDSGTYHCTAAEWIQDPDGSWVQVAEKRAVLAHVDVQTLSSQLAVTVGPGERRIGPGEPLELLCNVSGALPPPGRHAAYSVGWEMAPAGAPGPGRLVAQLDTEGIGSLGPGYEDRHIAMEKVASRTYRLRLEAARPADAGTYRCLAKAYVRGSGTRLREAASARSRPLPVHVREEGVVLEAVAWLAGGTVYRGETASLLCNISVRGGPPGLRLAASWWVERPEEGELSSGPAQLVGGVGQDGVAELGVRPGGGPVSVELVGPRSHRLRLHGLGPEDEGIYHCAPSAWVQHADYSWYQAGSARSGPVTVYPYTHAVDT
modifications: Same molecule as Sm1. Secreted ectodomain, likely N-glycosylated; limits by convention (UniProt extracellular domain without the signal peptide).

Kd [2]: 1390 nM
B2: IgSF8 (purified IgSF8 protein used as analyte in biolayer interferometry) (receptor)
chain: B1 chain
modifications: Secreted ectodomain, likely N-glycosylated. Limits are the UniProt extracellular domain without the signal peptide. Mouse is inferred from the mouse IgSF8 cDNA (BC048387) and the mouse IgSF8-His used
